Measured values from the supplement of paper PMC9233669.
Variants at the floor of the assay were thinned out.

Columns and labels:
biotinyl-Ile-oxazolone = experiment: self-aminoacylation, catalytic enhancement (BIO) (fold over background); higher = more active; k-Seq, kA / k0A0; sequences stand for … in GGGAAUGGAUCCACAUCUACGAAUUC…UUCACUGCAGACUUGACGAAGCUG
How it was run: (§1)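 Mutagenized RNA pools with a 21-nt variable region (0.43 μM) were reacted with each biotinyl-aminoacyl-oxazolone at 2–1250 μM for 90 minutes at room temperature, in 50 μL HEPES/NaCl/KCl/MgCl2/CaCl2 buffer containing 5% acetonitrile at pH 6.9–7.0. RNA captured on streptavidin was quantified by triplicate qPCR and by Illumina sequencing. The fraction reacted for each sequence was fit to a pseudo-first-order model with bootstrapping, and catalytic enhancement is the median kA divided by the uncatalyzed rate, taken as the low-activity peak of a bimodal Gaussian fit.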

biotinyl-Leu-oxazolone = experiment: self-aminoacylation, catalytic enhancement (BLO) (fold over background); higher = more active; k-Seq, kA / k0A0; sequences stand for … in GGGAAUGGAUCCACAUCUACGAAUUC…UUCACUGCAGACUUGACGAAGCUG
How it was run: as §1

biotinyl-Met-oxazolone = experiment: self-aminoacylation, catalytic enhancement (BMO) (fold over background); higher = more active; k-Seq, kA / k0A0; sequences stand for … in GGGAAUGGAUCCACAUCUACGAAUUC…UUCACUGCAGACUUGACGAAGCUG
How it was run: as §1

biotinyl-Trp-oxazolone = experiment: self-aminoacylation, catalytic enhancement (BWO) (fold over background); higher = more active; k-Seq, kA / k0A0; sequences stand for … in GGGAAUGGAUCCACAUCUACGAAUUC…UUCACUGCAGACUUGACGAAGCUG
How it was run: as §1

biotinyl-Phe-oxazolone = experiment: self-aminoacylation, catalytic enhancement (BFO) (fold over background); higher = more active; k-Seq, kA / k0A0; sequences stand for … in GGGAAUGGAUCCACAUCUACGAAUUC…UUCACUGCAGACUUGACGAAGCUG
How it was run: as §1

biotinyl-Val-oxazolone = experiment: self-aminoacylation, catalytic enhancement (BVO) (fold over background); higher = more active; k-Seq, kA / k0A0; sequences stand for … in GGGAAUGGAUCCACAUCUACGAAUUC…UUCACUGCAGACUUGACGAAGCUG
How it was run: as §1

| Sequence | self-aminoacylation (biotinyl-Ile-oxazolone) | self-aminoacylation (biotinyl-Leu-oxazolone) | self-aminoacylation (biotinyl-Met-oxazolone) | self-aminoacylation (biotinyl-Trp-oxazolone) | self-aminoacylation (biotinyl-Phe-oxazolone) | self-aminoacylation (biotinyl-Val-oxazolone) |
| --- | --- | --- | --- | --- | --- | --- |
| AAGUUUCCGAAUAGUCGCAAG [Fam3.1 aminoacylation ribozyme variant] | 2.01 | 1.7 | 1.73 | 1.87 | 2.81 | 1.79 |
| AAGUUUCCUAACAGUCGCAAG [Fam3.1 aminoacylation ribozyme variant] | 1.23 | 0.963 | 0.884 | 0.58 | 1.26 | 1.03 |
| AAGUUUCCUAAUAGUCGCAAA [Fam3.1 aminoacylation ribozyme variant] | 1.99 | 1.99 | 1.74 | 1.96 | 3.59 | 1.43 |
| AAGUUUCCUAAUAGUCGCAAG [Fam3.1 aminoacylation ribozyme variant] | 1.57 | 1.42 | 1.34 | 1.62 | 2.47 | 1.36 |
| AAGUUUCCUAAUCGUCGCAAG [Fam3.1 aminoacylation ribozyme variant] | 0.879 | 0.896 | 0.973 | 0.618 | 1 | 0.893 |
| AAGUUUCCUAAUUGUCGCAAG [Fam3.1 aminoacylation ribozyme variant] | 1.47 | 1.88 | 1.14 | 0.994 | 0.96 | 1.38 |
| AAGUUUCUUAAUAGUCGCAAG [Fam3.1 aminoacylation ribozyme variant] | 1.95 | 1.92 | 1.56 | 1.66 | 3.21 | 1.69 |
| AAGUUUGAUAAAAGUCGCAAG [Fam3.1 aminoacylation ribozyme variant] | 1.51 | 1.13 | 1.64 | 1.46 | 2.15 | 1.22 |
| AAGUUUGAUAAGAGUCGCAAG [Fam3.1 aminoacylation ribozyme variant] | 1.62 | 1.24 | 1.06 | 1.33 | 1.67 | 1.12 |
| AAGUUUGAUAAUACUCGCAAG [Fam3.1 aminoacylation ribozyme variant] | 0.638 | 0.493 | 0.617 | 0.52 | 0.788 | 0.511 |
| AAGUUUGAUAAUAGUCACAAG [Fam3.1 aminoacylation ribozyme variant] | 0.649 | 0.547 | 0.716 | 0.877 | 0.914 | 0.742 |
| AAGUUUGAUAAUAGUCCCAAG [Fam3.1 aminoacylation ribozyme variant] | 0.613 | 0.423 | 0.47 | 0.489 | 0.838 | 0.515 |
| AAGUUUGAUAAUAGUCGCAAA [Fam3.1 aminoacylation ribozyme variant] | 1.18 | 0.997 | 1.08 | 1.04 | 1.22 | 0.975 |
| AAGUUUGAUAAUAGUCGCAAC [Fam3.1 aminoacylation ribozyme variant] | 0.926 | 0.718 | 0.773 | 0.736 | 1.27 | 0.809 |
| AAGUUUGCAAAUAGCCGCAAG [Fam3.1 aminoacylation ribozyme variant] | 1.05 | 0.933 | 0.737 | 1.07 | 0.662 | 1.06 |
| AAGUUUGCAAAUAGUAGCAAG [Fam3.1 aminoacylation ribozyme variant] | 1.27 | 1.07 | 1.03 | 0.923 | 1.62 | 0.939 |
| AAGUUUGCAAAUAGUCGAAAG [Fam3.1 aminoacylation ribozyme variant] | 0.956 | 0.913 | 0.974 | 1.04 | 1.58 | 0.824 |
| AAGUUUGCAAAUAGUCUCAAG [Fam3.1 aminoacylation ribozyme variant] | 0.987 | 0.747 | 1.12 | 0.81 | 0.972 | 0.772 |
| AAGUUUGCAAAUUGUCGCAAG [Fam3.1 aminoacylation ribozyme variant] | 1.26 | 1.57 | 1.47 | 1.53 | 0.968 | 1.19 |
| AAGUUUGCACAUAGUCGCAAG [Fam3.1 aminoacylation ribozyme variant] | 0.804 | 0.586 | 0.656 | 0.682 | 0.76 | 0.73 |
| AAGUUUGCCAAUAGACGCAAG [Fam3.1 aminoacylation ribozyme variant] | 0.591 | 0.562 | 0.625 | 0.482 | 0.674 | 0.664 |
| AAGUUUGCCAAUAGUCGAAAG [Fam3.1 aminoacylation ribozyme variant] | 1.05 | 0.911 | 1.44 | 1.5 | 0.727 | 1.02 |
| AAGUUUGCCAAUAGUCGUAAG [Fam3.1 aminoacylation ribozyme variant] | 0.916 | 0.724 | 0.873 | 1.51 | 1.38 | 0.732 |
| AAGUUUGCCAAUGGUCGCAAG [Fam3.1 aminoacylation ribozyme variant] | 0.987 | 1 | 1.02 | 1.01 | 0.499 | 0.852 |
| AAGUUUGCCAGUAGUCGCAAG [Fam3.1 aminoacylation ribozyme variant] | 1.04 | 1.02 | 0.793 | 1.21 | 0.763 | 0.932 |
